The values below come from US11370846B2, “Compositions and methods to regulate Renalase in the treatment of cancer” (Yale University, priority 2014, dated 2022).

Where two headings read alike, the source gives them in different places.

In experiment [1] the test system is renalase-1 and renalase-2. Briefly: Renalase isoform specificity of anti-renalase antibodies. It is filed as binding, human. The following applies: renalase-1 vs renalase-2. How it is done:
Peptides were used as immunogens. The peptides generated ranged from 9 to 21 amino acids and corresponded to regions of the renalase-1 and renalase-2 proteins. […] Each peptide was conjugated to the adjuvant KLH via the cysteine and used to immunize 6 rabbits. Antiserum collected from each animal was screened for anti-renalase antibody titer by ELISA assay using both the relevant peptide (BSA-conjugate) or full length renalase-1 or 2. The antisera were also tested for their ability to detect endogenous renalase in tissue lysates by western blot. Using these screening criteria the animals producing antibodies with the preferred characteristics were selected. In some examples and for some peptides, several animals produced antibodies with the required specificity. […] Polyclonal antibodies raised against all of the peptides were generated by purification of total IgG from terminal bleeds by protein G chromatography followed by further purification on peptide affinity chromatography. Further and using standard procedures, lymphocytes from the spleens of selected animals were fused to myeloma cells for hybridoma generation. The hybridoma supernatants were screened for binding to both the peptides against which they were raised and secondarily screened against whole renalase protein. Selected hybridomas were sub-cloned and expanded for antibody purification. The monoclonal antibodies were purified from conditioned hybridoma culture supernatant by protein A affinity chromatography.

For experiment [2], the system named is PDACC. Kind of experiment: PDACC growth with anti-RNLS antibodies, WST-1. The note with it: 72 hrs. Format: cell-based, human. On the procedure: FIG. 25A through FIG. 25E are a series of charts and images showing that inhibition of RNLS signaling is cytotoxic to cancer cells in vitro and in vivo. FIG. 25A is a chart showing relative cell viability following transient transfection of Panc1 cells using a RNLS-specific siRNA, or a non-specific control siRNA, and cell viability assayed 96 h later using the WST-1 reagent; n=6, ** indicates p<0.001. FIG. 25B is a chart showing relative cell viability when cells were treated with indicated antibodies for 72 hrs and cell viability determined using WST-1; m28-RNLS and m37-RNLS: monoclonal antibodies raised against RNLS peptide RP220, ab31291: Abcam polyclonal antibody raised against a partial sequence of RP-220; n=6, * indicates p<0.005. […] FIG. 25D is a chart showing tumor volume increase after athymic nude mice received subcutaneous injection of Panc1 cells transduced with RNLS shRNA (sh-RNLS) or control (sh-Control); tumor volume measured every […] for up to 30 days, n=6 each; * indicates p<0.05. FIG. 25E is chart showing tumor volume increase after nude mice were xenografted with BxPC3; tumor volume measured prior to treatment every 3-4 days with 2 mg/kg of either rabbit IgG as a negative control or with m28-RNLS, n=10, * indicates p<0.05.

Experiment [3] deals with melanoma cells. Briefly: Melanoma cell lines in culture, viability/growth. Format: cell-based, human. How it is done:
FIG. 19A through FIG. 19D are a series of images and charts showing that inhibition of RNLS signaling is cytotoxic to melanoma cells in vitro. […] FIG. 19B comprises two charts depicting relative cell viability: Left panel: Cells were treated with indicated antibodies for 72 hrs and cell viability was determined using WST-1; m28-RNLS (also known as 1D-28-4), m37-RNLS (also known as 1D-37-10): monoclonal antibodies raised against RNLS peptide RP220; Right panel: A375.S2 cells treated with increasing doses of m28-RNLS for 72 hrs and cell viability determined with a WST-1 assay; n=6, * indicates p<0.05 and ** indicates p<0.005. FIG. 19C comprises representative photos of A375.S2, SkMe128, and SkMe15 after 72 hrs incubation with either control rabbit IgG or m28-RNLS. FIG. 19D is a chart depicting relative cell viability, comprising amino acid (AA) sequence of RNLS peptide antagonist (RP220A).
For additional studies, cell viability was determined using WST-1 reagent (Roche Diagnostics, Indianapolis, Ind., USA) according to the manufacturers' instruction. Absorbances were read using a microplate reader (Power Waves XS, BioTek Instruments, Winooski, Vt., USA).

B1: 1F-26-1: anti-renalase monoclonal specific for renalase-1 (antigen 1F); heavy chain SEQ ID NO:25, light chain SEQ ID NO:26 (antibody)
heavy: METGLRWLLLVAVLKGVQCQSVKESEGGLFKPTDTLTLTCTVSGFSLSSYGVTWVRQAPGNGLEWIGLIGDRGTTFYASWAKSRSTITRNTNLNTVTLKMTRLTAADTATYFCARGSGYGARIWGPGTLVTVSSWQPKAPSVFPLAPCCGDTPSSTVTLGCLVKGYLPEPVTVTWNSGTLTNGVRTFPSVRQSSGLYSLSSVVSVTSSSQPVTCNVAHPATNTKVDKTVAPSTCSKPTCPPPELLGGPSVFIFPPKPKDTLMISRTPEVTCVVVDVSQDDPEVQFTWYINNEQVRTARPPLREQQFNSTIRVVSTLPIAHQDWLRGKEFKCKVHNKALPAPIEKTISKARGQPLEPKVYTMGPPREELSSRSVSLTCMINGFYPSDISVEWEKNGKAEDNYKTTPAVLDSDGSYFLYSKLSVPTSEWQRGDVFTCSVMHEALHNHYTQKSISRSPGK
light: MDTRAPTQLLGLLLLWLPGATFAQVLTQTPSPVSAAVGGTVTINCQSSQSVYKNNYLAWYQQKPGQPPKLLIYETSKLASGVPPRFSGSGSGTQFTLTISSVQCDDAATYYCQGGYSGVDFMAFGGGTEVVVKGDPVAPTVLIFPPSADLVATGTVTIVCVANKYFPDVTVTWEVDGTTQTTGIENSKTPQNSADCTYNLSSTLTLTSTQYNSHKEYTCKVTQGTTSVVQSFNRGDC
modifications: oryctolagus cuniculus
As for B1, in experiment [1], the renalase isoform specificity result is reported as “specific for renalase-1”.

B2: 1F-42-7: anti-renalase monoclonal specific for renalase-1 (antigen 1F); heavy chain SEQ ID NO:33, light chain SEQ ID NO:34 (antibody)
heavy: METGLRWLLLVAVLKGVQCQSVKESEGGLFKPTDTLTLTCTVSGFSLTTYGVTWVRQAPGNGLEWIGLIGDRGTTYYASWVNGRSTITRNTNLNTVTLKMTRLTAADTATYFCARGSGYGARIWGPGTLVTVASWQPKAPSVFPLAPCCGDTPSSTVTLGCLVKGYLPEPVTVTWNSGTLTNGVRTFPSVRQSSGLYSLSSVVSVTSSSQPVTCNVAHPATNTKVDKTVAPSTCSKPTCPPPELLGGPSVFIFPPKPKDTLMISRTPEVTCVVVDVSQDDPEVQFTWYINNEQVRTARPPLREQQFNSTIRVVSTLPIAHQDWLRGKEFKCKVHNKALPAPIEKTISKARGQPLEPKVYTMGPPREELSSRSVSLTCMINGFYPSDISVEWEKNGKAEDNYKTTPAVLDSDGSYFLYSKLSVPTSEWQRGDVFTCSVMHEALHNHYTQKSISRSPGK
light: MDTRAPTQLLGLLLLWLPGATFAQVLTQTPSPMSAALGGTVTINCQSSQTVYNNNYLSWYQQKPGQPPKLLIYETSKLSSGVPPRFSGSGSGTQFTLTISSVQCDDAATYYCQGGYSGVDFMAFGGGTEVVVKGDPVAPTVLIFPPSADLVATGTVTIVCVANKYFPDVTVTWEVDGTTQTTGIENSKTPQNSADCTYNLSSTLTLTSTQYNSHKEYTCKVTQGTTSVVQSFNRGDC
modifications: oryctolagus cuniculus
B2: in experiment [1], the renalase isoform specificity entry is “specific for renalase-1”.

B3: 3A-5-2: anti-renalase monoclonal specific for renalase-2 (antigen 3A); heavy chain SEQ ID NO:41, light chain SEQ ID NO:42 (antibody)
heavy: METGLRWLLLVAVLKGVQCQSLEESGGRLVTPGTPLTLTCTVSGFSLNNYHIYWVRQAPGKGLEYIGIIFNGGTYYARWTKGRFTISKTSTTVDLKMTSLTTEDTATYFCARGDGIWGPGTLVTVSLGQPKAPSVFPLAPCCGDTPSSTVTLGCLVKGYLPEPVTVTWNSGTLTNGVRTFPSVRQSSGLYSLSSVVSVTSSSQPVTCNVAHPATNTKVDKTVAPSTCSKPTCPPPELLGGPSVFIFPPKPKDTLMISRTPEVTCVVVDVSQDDPEVQFTWYINNEQVRTARPPLREQQFNSTIRVVSTLPIAHQDWLRGKEFKCKVHNKALPAPIEKTISKARGQPLEPKVYTMGPPREELSSRSVSLTCMINGFYPSDISVEWEKNGKAEDNYKTTPAVLDSDGSYFLYSKLSVPTSEWQRGDVFTCSVMHEALHNHYTQKSISRSPGK
light: MDTRAPTQLLGLLLLWLPGATFAQVLTQTPASVSAAVGGTVTINCQASQSVFNNNYLAWYQQKPGQPPKRLIYSASTLASGVSSRFKGSGSGTEFTLTMSGVECDDAATYYCAGSFDCNSGDCVAFGGGTEVVVKGDPVAPTVLIFPPAADQVATGTVTIVCVANKYFPDVTVTWEVDGTTQTTGIENSKTPQNSADCTYNLSSTLTLTSTQYNSHKEYTCKVTQGTTSVVQSFNRGDC
modifications: oryctolagus cuniculus
On to B3, for which the renalase isoform specificity entry in experiment [1] is recorded as “specific for renalase-2”.

B4: 1D-37-10: rabbit anti-renalase monoclonal raised against peptide RP-220 (antigen 1D); heavy chain SEQ ID NO:17, light chain SEQ ID NO:18 (antibody)
heavy: METGLRWLLLVAVLKGVQCQSVEESGGRLVTPGGSLTLTCTVSGFSLSDYAIIWVRQAPGKGLEYIAIIGSSGDTFYATWAKGRFTISKTSTTVDLKMTSLTAADTATYFCAPRYAGTTDYHDAFDPWGPGTLVTVSSGQPKAPSVFPLAPCCGDTPSSTVTLGCLVKGYLPEPVTVTWNSGTLTNGVRTFPSVRQSSGLYSLSSVVSVTSSSQPVTCNVAHPATNTKVDKTVAPSTCSKPTCPPPELLGGPSVFIFPPKPKDTLMISRTPEVTCVVVDVSQDDPEVQFTWYINNEQVRTARPPLREQQFNSTIRVVSTLPIAHQDWLRGKEFKCKVHNKALPAPIEKTISKARGQPLEPKVYTMGPPREELSSRSVSLTCMINGFYPSDISVEWEKNGKAEDNYKTTPAVLDSDGSYFLYSKLSVPTSEWQRGDVFTCSVMHEALHNHYTQKSISRSPGK
light: MDTRAPTQLLGLLLLWLPGARCAEVVMTQTPASMEAPMGGTVTIKCQASQNIYNYLSWYQQKPGQPPKLLVYKASTLTSGVPSRFKGSGSGTQFTLTISDLECADAATYYCQINYSIYNHYNIIFGGGTEVVVKGDPVAPTVLIFPPSADLVATGTVTIVCVANKYFPDVTVTWEVDGTTQTTGIENSKTPQNSADCTYNLSSTLTLTSTQYNSHKEYTCKVTQGTTSVVQSFNRGDC
modifications: oryctolagus cuniculus
In the case of B4, in experiment [1], the renalase isoform specificity entry was “recognize renalase-1 and renalase-2”. Also, the PDACC growth result in experiment [2] is reported as “inhibitory effects”. The “melanoma cell growth/viability in culture” value in experiment [3] is listed as “inhibit melanoma cells in culture”; in experiment [3] (listed as D-37-10), “inhibit melanoma cell growth”; in experiment [3] (listed as m37-RNLS), “decreased the viability of all (total of 5) melanoma cell lines tested”.
